Reference: PMC12056208
Where two headings read alike, the source gives them in different places.

B1: Y-shaped 42-55 DNA (dsDNA)
DNA 1: CGCGCCCAGCTTTCCCAGCTAATAAACTAAAAACTATTATTATGGCCGCACGCGT
DNA 2: ACGCGTGCGGCCATAATAATAGTTTTTAGTTTATTGGGCGCG
modifications: 5' biotin on strand 1
B2: Microhomology DNA for Pol mu (dsDNA)
DNA 1: GGTGCAGCACAGTGC
DNA 2: ACTGTGCTGCACC
DNA 3: GACTGCACGGCAGC
DNA 4: GCCGTGCAGTC

Legend:
[1] = biological target: T1, Ku70;Ku80;DNA polymerase mu (Homo sapiens?;Homo sapiens?;Homo …, UniProt P12956;P13010;Q9NP87 1-609;1-732;1-494, ||); conditions: protein: recombinant;recombinant;recombinant; copies: 1;1;1; label: biotin; fork: 35 bp duplex (1:21-55 with 2:1-35), 5' tail 20 nt on strand 1, 3' tail 7 nt on strand 2; the tail ends (1:1-7, 2:36-42) are also complementary
Ku70;Ku80 = Ku70;Ku80 (Homo sapiens?;Homo sapiens?, UniProt P12956;P13010 1-609;1-732, |); conditions: protein: recombinant;recombinant; copies: 1;1; label: biotin; fork: 35 bp duplex (1:21-55 with 2:1-35), 5' tail 20 nt on strand 1, 3' tail 7 nt on strand 2; the tail ends (1:1-7, 2:36-42) are also complementary
[2] = biological target: Ku70;Ku80;DNA polymerase lambda (Homo sapiens?;Homo sapiens?;Homo …, UniProt P12956;P13010;Q9UGP5 1-609;1-732;1-575, ||); conditions: protein: recombinant;recombinant;recombinant; copies: 1;1;1; label: biotin; fork: 35 bp duplex (1:21-55 with 2:1-35), 5' tail 20 nt on strand 1, 3' tail 7 nt on strand 2; the tail ends (1:1-7, 2:36-42) are also complementary
[3] = biological target: T1, Ku70;Ku80;DNA polymerase mu; conditions: protein: recombinant;recombinant;recombinant; copies: 1;1;1; two duplexes: S3/S6 13 bp with 3' overhang GC on S3; S5/S4 11 bp with 3' overhang AGC on S5; GC microhomology between overhangs

T1 sequence (P12956 whole entry, chain 1 of 3): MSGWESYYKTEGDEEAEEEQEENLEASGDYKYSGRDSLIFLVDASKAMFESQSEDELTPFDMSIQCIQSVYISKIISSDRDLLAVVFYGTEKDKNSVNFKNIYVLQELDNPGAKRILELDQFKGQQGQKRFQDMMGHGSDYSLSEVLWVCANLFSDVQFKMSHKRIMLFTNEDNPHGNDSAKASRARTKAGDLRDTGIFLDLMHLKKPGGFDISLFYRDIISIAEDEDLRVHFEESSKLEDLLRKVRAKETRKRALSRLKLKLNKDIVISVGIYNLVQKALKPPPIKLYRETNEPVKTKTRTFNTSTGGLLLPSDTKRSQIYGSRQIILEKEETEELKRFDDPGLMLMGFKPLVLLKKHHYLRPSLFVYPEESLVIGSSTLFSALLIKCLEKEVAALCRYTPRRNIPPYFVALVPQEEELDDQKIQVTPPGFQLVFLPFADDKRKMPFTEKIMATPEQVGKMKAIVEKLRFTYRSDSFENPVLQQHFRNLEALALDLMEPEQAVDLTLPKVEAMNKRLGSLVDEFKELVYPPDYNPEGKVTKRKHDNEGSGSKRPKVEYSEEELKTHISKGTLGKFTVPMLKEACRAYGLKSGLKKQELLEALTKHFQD
T1 sequence (P13010 whole entry, chain 2 of 3): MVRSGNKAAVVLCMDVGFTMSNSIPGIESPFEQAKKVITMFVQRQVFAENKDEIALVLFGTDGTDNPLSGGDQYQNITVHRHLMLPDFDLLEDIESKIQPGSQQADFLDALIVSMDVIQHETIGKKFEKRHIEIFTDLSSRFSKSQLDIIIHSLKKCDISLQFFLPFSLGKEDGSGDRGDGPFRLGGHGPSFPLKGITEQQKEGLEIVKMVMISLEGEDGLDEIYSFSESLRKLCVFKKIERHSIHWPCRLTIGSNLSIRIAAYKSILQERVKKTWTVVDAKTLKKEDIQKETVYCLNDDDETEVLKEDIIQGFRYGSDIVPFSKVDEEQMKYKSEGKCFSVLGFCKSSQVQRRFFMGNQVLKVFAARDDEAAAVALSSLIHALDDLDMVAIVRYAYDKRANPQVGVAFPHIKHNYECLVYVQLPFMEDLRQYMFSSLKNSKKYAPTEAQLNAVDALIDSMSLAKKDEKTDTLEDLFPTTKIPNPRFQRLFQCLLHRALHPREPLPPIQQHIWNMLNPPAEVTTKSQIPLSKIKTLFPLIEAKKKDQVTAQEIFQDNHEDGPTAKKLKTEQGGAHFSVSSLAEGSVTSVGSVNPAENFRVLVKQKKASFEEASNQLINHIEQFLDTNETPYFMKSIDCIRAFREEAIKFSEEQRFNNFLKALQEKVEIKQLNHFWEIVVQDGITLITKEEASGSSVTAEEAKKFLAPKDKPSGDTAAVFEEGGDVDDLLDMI
T1 sequence (Q9NP87 whole entry, chain 3 of 3): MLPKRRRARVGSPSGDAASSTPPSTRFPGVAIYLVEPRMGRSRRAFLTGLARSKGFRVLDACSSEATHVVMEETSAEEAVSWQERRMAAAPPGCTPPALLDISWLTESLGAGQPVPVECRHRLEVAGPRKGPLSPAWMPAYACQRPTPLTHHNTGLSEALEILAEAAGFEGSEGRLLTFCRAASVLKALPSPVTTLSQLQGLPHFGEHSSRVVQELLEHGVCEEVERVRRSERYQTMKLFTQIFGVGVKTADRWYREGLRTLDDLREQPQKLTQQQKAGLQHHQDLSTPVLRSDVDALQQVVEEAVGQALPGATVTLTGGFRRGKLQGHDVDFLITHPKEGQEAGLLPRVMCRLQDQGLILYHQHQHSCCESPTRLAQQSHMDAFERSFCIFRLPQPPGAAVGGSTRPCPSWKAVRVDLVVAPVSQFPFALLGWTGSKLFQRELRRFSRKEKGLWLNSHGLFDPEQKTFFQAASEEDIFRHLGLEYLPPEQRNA
Ku70;Ku80;DNA polymerase lambda, sequence (P12956 whole entry, chain 1 of 3): as the sequence (P12956 whole entry, chain 1 of 3) above
Ku70;Ku80;DNA polymerase lambda, sequence (P13010 whole entry, chain 2 of 3): as the sequence (P13010 whole entry, chain 2 of 3) above
Ku70;Ku80;DNA polymerase lambda, sequence (Q9UGP5 whole entry, chain 3 of 3): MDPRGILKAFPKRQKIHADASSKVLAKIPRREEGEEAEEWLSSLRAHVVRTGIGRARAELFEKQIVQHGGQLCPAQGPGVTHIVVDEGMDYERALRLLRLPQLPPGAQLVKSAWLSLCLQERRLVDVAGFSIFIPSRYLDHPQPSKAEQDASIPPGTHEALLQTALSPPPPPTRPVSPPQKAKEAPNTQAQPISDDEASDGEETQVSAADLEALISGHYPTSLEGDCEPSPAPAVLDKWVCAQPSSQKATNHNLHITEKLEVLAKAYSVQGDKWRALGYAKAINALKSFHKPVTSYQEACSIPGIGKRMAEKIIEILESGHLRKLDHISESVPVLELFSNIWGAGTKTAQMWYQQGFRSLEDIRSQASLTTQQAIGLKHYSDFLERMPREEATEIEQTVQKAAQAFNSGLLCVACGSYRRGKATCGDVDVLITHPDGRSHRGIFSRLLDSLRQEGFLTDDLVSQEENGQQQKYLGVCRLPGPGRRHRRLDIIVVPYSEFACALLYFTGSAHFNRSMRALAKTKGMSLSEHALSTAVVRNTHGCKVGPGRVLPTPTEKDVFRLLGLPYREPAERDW
Ku70;Ku80, sequence (P12956 whole entry, chain 1 of 2): as the sequence (P12956 whole entry, chain 1 of 3) above
Ku70;Ku80, sequence (P13010 whole entry, chain 2 of 2): as the sequence (P13010 whole entry, chain 2 of 3) above

| Binder | binding result [1] | binding result (Ku70;Ku80) | binding result [2] | binding result [3] |
| --- | --- | --- | --- | --- |
| B1 | binds | binds | binds | – |
| B2 | – | – | – | binds |
